One block for each molecule: values may come before it.
How the values were obtained:
[1] = target: T1, MSMEG_3380 (promiscuous F420H2-dependent reductase, FDOR-B) (Mycolicibacterium smegmatis, UniProt A0QXP8); experiment: intrinsic tryptophan fluorescence quenching; format: binding; conditions: read-out: F420 Kd
T1 construct: recombinant in E. coli BL21(DE3), Ni-NTA purified; dimer
Text: intrinsic tryptophan fluorescence quenching on MSMEG_3380 (promiscuous F420H2-dependent reductase, FDOR-B)

[2] = target: T2, Fgd (F420-dependent glucose 6-phosphate dehydrogenase MSMEG_0777) (Mycolicibacterium smegmatis, UniProt A0QQJ4); experiment: intrinsic tryptophan fluorescence quenching; format: binding
T2 construct: recombinant in E. coli BL21(DE3), Ni-NTA purified; LLHT family
T2 sequence (A0QQJ4 2-336): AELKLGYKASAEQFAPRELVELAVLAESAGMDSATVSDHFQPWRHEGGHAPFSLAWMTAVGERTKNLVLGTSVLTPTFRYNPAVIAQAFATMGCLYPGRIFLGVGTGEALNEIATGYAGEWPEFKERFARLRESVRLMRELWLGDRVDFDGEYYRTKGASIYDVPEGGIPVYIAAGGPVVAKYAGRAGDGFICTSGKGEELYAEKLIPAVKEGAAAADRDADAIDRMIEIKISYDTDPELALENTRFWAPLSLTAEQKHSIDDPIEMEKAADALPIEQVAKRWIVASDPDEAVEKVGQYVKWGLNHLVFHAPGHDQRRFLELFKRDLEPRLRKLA
Text: intrinsic tryptophan fluorescence quenching on Fgd (F420-dependent glucose 6-phosphate dehydrogenase MSMEG_0777)

[3] = target: T3, MSMEG_2027 (F420H2-dependent quinone reductase, FDOR-A) (Mycolicibacterium smegmatis, UniProt A0QU01); experiment: intrinsic tryptophan fluorescence quenching; format: binding; conditions: read-out: F420 Kd
T3 construct: recombinant in E. coli BL21(DE3), Ni-NTA purified; monomer
T3 sequence (A0QU01 1-140): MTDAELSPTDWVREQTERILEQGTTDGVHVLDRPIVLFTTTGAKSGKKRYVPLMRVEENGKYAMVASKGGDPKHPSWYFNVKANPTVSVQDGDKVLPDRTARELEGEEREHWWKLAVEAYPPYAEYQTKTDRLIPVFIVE
Text: intrinsic tryptophan fluorescence quenching on MSMEG_2027 (F420H2-dependent quinone reductase, FDOR-A)

[4] = substrate: O=C1C=CCCC1; experiment: purified protein; format: biochemical, Mycolicibacterium smegmatis; conditions: 50 μM long-chain F420H2 (mycobacterial), 200 mM TrisHCl, 0.1% Triton X-100, pH 8.0
[5] = substrate: CC1=CC(=O)c2ccccc2C1=O; experiment: purified protein; format: biochemical, Mycolicibacterium smegmatis; conditions: 50 μM long-chain F420H2 (mycobacterial), 200 mM TrisHCl, 0.1% Triton X-100, pH 8.0

- Kd [1]: 570 ± 50 nM
- Kd [2]: 4180 ± 290 nM
- Kd [3]: 1430 ± 120 nM
Molecule: C[C@H](OP(=O)(O)OC[C@@H](O)[C@@H](O)[C@@H](O)Cn1c2nc(=O)[nH]c(=O)c-2cc2ccc(O)cc21)C(=O)N[C@@H](CCC(=O)N[C@@H](CCC(=O)O)C(=O)O)C(=O)O [F420-2, short-chain F420]

B1: MSMEG_3380 (promiscuous F420H2-dependent reductase, FDOR-B) (Mycolicibacterium smegmatis MC2 155) (protein)
chain: MVAVPEGYESLLERPLYGHLATVRPDGTPQVNAMWFAWDGEVLRFTHTTKRQKYRNIKANPAVAMSVIDPDNPYRYLEVRGLVEDIVPDPTGAFYLKLNDRYDGPLTEPPADKADRVIIVVRPTAFSKQ
notes: recombinant in E. coli BL21(DE3), Ni-NTA purified; dimer
- Km [4]: 259 ± 41 µM
- kcat [4]: 0.025 ± 0.001 s⁻¹
- kcat/Km [4]: 96 M⁻¹ s⁻¹

B2: MSMEG_2027 (F420H2-dependent quinone reductase, FDOR-A) (Mycolicibacterium smegmatis MC2 155) (protein)
chain: MTDAELSPTDWVREQTERILEQGTTDGVHVLDRPIVLFTTTGAKSGKKRYVPLMRVEENGKYAMVASKGGDPKHPSWYFNVKANPTVSVQDGDKVLPDRTARELEGEEREHWWKLAVEAYPPYAEYQTKTDRLIPVFIVE
notes: recombinant in E. coli BL21(DE3), Ni-NTA purified; monomer
- Km [5]: 25.6 ± 9.2 µM
- kcat [5]: 0.084 ± 0.007 s⁻¹
- kcat/Km [5]: 3280 M⁻¹ s⁻¹
